In patent publication US20110275122A1:
Values joined by “and” are separate entries in the source; they are usually repeats but may differ in a detail not shown here. Equal entries are not always repeated. Where no end group is shown, it is not given here.

B1: SEQ ID NO: 9 (TPO-mimetic fusion protein of Table 13) (Fc fusion, not shown: a dimerising Fc or GST)
chain: QGCSSGGPTLREWQQCRRMQHS
modifications: cysteine pairing not given here; also: fused to an Fc molecule, side and linker not given here
B2: SEQ ID NO: 11 (TPO-mimetic fusion protein of Table 13) (Fc fusion, not shown: a dimerising Fc or GST)
chain: QGCSWGGPTLKNWLQCVRAKHS
modifications: cysteine pairing not given here; also: fused to an Fc molecule, side and linker not given here
B3: SEQ ID NO: 241 (TPO-mimetic fusion protein of Table 13) (Fc fusion, not shown: a dimerising Fc or GST)
chain: ICTEGCTLRLWLAERSRV
modifications: cysteine pairing not given here; also: Fc fused at N- or C-terminus, side and linker not given here

Target: human mpl receptor (human) (UniProt P40238)
Experiment: cell-based or functional assay

**Q.** Which Pb EC50 does the source give for CSSGGPTLREWQQCSRAQ (Fc fusion, part only; not given: Fc and insertion site, part only, cysteine pairing not given here; also: peptide inserted in a loop of an Fc) [Fc-Loop-(SEQ ID NO: 454)] here?
**A.** 0.28 ng/mL

**Q.** With CSSGGPTLREWQQCQRAQ (Fc fusion, part only; not given: Fc and insertion site, part only, cysteine pairing not given here; also: peptide inserted in a loop of an Fc) [Fc-Loop-(SEQ ID NO: 455)] as the binder, how does the Pb EC50 read?
**A.** 0.27 ng/mL

**Q.** With CSSGGPTLREWQQCGRAQ (Fc fusion, part only; not given: Fc and insertion site, part only, cysteine pairing not given here; also: peptide inserted in a loop of an Fc) [Fc-Loop-(SEQ ID NO: 456)] as the binder, how does the Pb EC50 read?
**A.** 2.31 ng/mL

**Q.** For B1, which Pb EC50 is on record?
**A.** 0.44 ng/mL

**Q.** How did the Pb EC50 turn out when B2 was run?
**A.** 4.01 ng/mL

**Q.** For YMMEGPTLRHWLATRAGR (Fc fusion, not shown: a dimerising Fc or GST, also: Fc fusion, side and linker not given here) [SEQ ID NO: 103 (TPO-mimetic fusion protein of Table 13)], which Pb EC50 is on record?
**A.** 0.79 ng/mL

**Q.** For SAIEGPTLRHWLAWRAML (Fc fusion, not shown: a dimerising Fc or GST, also: Fc fusion, side and linker not given here) [SEQ ID NO: 117 (TPO-mimetic fusion protein of Table 13)], which Pb EC50 is on record?
**A.** 1.09 ng/mL

**Q.** For WMMEGPTLRHWLAARARY (Fc fusion, not shown: a dimerising Fc or GST, also: Fc fusion, side and linker not given here) [SEQ ID NO: 115 (TPO-mimetic fusion protein of Table 13)], which Pb EC50 is on record?
**A.** 1.43 ng/mL and 1.81 ng/mL

**Q.** How did the Pb EC50 turn out when AWMEGPTLRHWLAARAAY (Fc fusion, not shown: a dimerising Fc or GST, also: Fc fusion, side and linker not given here) [SEQ ID NO: 149 (TPO-mimetic fusion protein of Table 13)] was run?
**A.** 1.84 ng/mL

**Q.** How did the Pb EC50 turn out when WPMEGPTLRHWLAARAAR (Fc fusion, not shown: a dimerising Fc or GST, also: Fc fusion, side and linker not given here) [SEQ ID NO: 171 (TPO-mimetic fusion protein of Table 13)] was run?
**A.** 1.56 ng/mL

**Q.** For B3, which Pb EC50 is on record?
**A.** 1.83 ng/mL

**Q.** How did the Pb EC50 turn out when DAIEGPTLRLWLEARRKQ (Fc fusion, not shown: a dimerising Fc or GST, also: Fc fusion, side and linker not given here) [SEQ ID NO: 139 (TPO-mimetic fusion protein of Table 13)] was run?
**A.** 1.89 ng/mL

**Q.** How did the Pb EC50 turn out when YYLEGPTLRHWLAARAYL (Fc fusion, not shown: a dimerising Fc or GST, also: Fc fusion, side and linker not given here) [SEQ ID NO: 128 (TPO-mimetic fusion protein of Table 13)] was run?
**A.** 1.82 ng/mL

**Q.** How did the Pb EC50 turn out when WVMEGPTLRHWLAARASL (Fc fusion, not shown: a dimerising Fc or GST, also: Fc fusion, side and linker not given here) [SEQ ID NO: 123 (TPO-mimetic fusion protein of Table 13)] was run?
**A.** 2.08 ng/mL

**Q.** For LTMEGPTLRHWLAARATR (Fc fusion, not shown: a dimerising Fc or GST, also: Fc fusion, side and linker not given here) [SEQ ID NO: 225 (TPO-mimetic fusion protein of Table 13)], which Pb EC50 is on record?
**A.** 3.1 ng/mL

**Q.** HPIEGPTLRLWLAARARA (Fc fusion, not shown: a dimerising Fc or GST, also: Fc fusion, side and linker not given here) [SEQ ID NO: 163 (TPO-mimetic fusion protein of Table 13)] was tested. Which Pb EC50 did it give?
**A.** 2.8 ng/mL
